Source: patent publication US11141452 (dated 2021)
Where two headings read alike, the source gives them in different places. Non-standard residues stand in square brackets, D forms with d. Primed or numbered codes have the meaning given here. No end group written: not given here. *: point of attachment. NH(3,5-(CF3)2-benzyl) = FC(F)(F)c1cc(CN*)cc(C(F)(F)F)c1; NMePhe(4-F) = CN[C@@H](Cc1ccc(F)cc1)C(=O)O; Phe(4-F) = N[C@@H](Cc1ccc(F)cc1)C(=O)O; Dmt = Cc1cc(O)cc(C)c1C[C@H](N)C(=O)O; NMeF = CN[C@@H](Cc1ccccc1)C(=O)O; 4‑Ampa = not defined here; 4‑Apac = not defined here; hSer = N[C@@H](CCO)C(=O)O; 4Abz = Nc1ccc(C(=O)O)cc1; 4Amb′ = not defined here; Orn = NCCC[C@H](N)C(=O)O; Dab = NCC[C@H](N)C(=O)O; Dap = NC[C@H](N)C(=O)O; NHBn = c1ccc(CN*)cc1; Ahx = NCCCCCC(=O)O; GABA = NCCCC(=O)O; βAla = NCCC(=O)O

Tests used:
Assay in all cases: competition
human NK1 receptor [1] = molecular target: T1, human NK1 receptor (human, UniProt P25103)
T1 chain: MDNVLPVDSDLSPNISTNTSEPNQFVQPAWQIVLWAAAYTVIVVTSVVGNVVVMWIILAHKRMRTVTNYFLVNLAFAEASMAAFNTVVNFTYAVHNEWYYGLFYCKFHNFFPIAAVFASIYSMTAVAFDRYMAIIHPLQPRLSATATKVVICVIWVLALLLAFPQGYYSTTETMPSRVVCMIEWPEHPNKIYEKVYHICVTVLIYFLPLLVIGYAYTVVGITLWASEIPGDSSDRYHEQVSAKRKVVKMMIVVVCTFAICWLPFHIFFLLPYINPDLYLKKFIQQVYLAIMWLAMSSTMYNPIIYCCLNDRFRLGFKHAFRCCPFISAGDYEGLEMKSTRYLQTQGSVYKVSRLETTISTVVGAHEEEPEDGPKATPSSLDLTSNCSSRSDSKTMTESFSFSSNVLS

rat NK1 receptor [2] = molecular target: T2, rat NK1 receptor (rat, UniProt P14600)
T2 chain: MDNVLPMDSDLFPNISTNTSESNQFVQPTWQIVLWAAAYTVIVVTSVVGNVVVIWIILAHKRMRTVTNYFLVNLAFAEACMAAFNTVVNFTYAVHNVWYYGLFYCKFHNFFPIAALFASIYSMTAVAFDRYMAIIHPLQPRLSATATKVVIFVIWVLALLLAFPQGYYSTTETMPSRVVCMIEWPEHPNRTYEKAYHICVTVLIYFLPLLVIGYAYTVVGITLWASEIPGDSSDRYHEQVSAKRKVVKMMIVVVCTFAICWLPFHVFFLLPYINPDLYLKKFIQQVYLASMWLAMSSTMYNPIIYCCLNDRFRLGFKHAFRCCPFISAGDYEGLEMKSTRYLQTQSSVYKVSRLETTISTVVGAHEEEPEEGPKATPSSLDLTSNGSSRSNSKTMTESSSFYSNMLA

human NK1 receptor [3] = molecular target: T1, human NK1 receptor
[4] = molecular target: T3, delta opioid receptor (DOR) (UniProt P41143)
T3 chain: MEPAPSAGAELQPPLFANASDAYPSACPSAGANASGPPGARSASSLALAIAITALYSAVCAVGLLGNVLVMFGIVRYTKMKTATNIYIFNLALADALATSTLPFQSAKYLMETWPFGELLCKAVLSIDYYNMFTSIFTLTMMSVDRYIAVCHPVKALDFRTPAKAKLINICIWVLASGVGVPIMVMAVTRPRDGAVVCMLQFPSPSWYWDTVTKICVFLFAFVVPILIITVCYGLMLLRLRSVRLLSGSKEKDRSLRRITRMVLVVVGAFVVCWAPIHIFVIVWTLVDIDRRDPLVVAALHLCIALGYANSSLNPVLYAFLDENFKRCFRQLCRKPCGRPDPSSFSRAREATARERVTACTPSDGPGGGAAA

rat NK1 receptor [5] = molecular target: T2, rat NK1 receptor
mu opioid receptor (MOR) [6] = molecular target: mu opioid receptor (MOR) (UniProt P35372)
Chain of mu opioid receptor (MOR) (P35372 whole entry): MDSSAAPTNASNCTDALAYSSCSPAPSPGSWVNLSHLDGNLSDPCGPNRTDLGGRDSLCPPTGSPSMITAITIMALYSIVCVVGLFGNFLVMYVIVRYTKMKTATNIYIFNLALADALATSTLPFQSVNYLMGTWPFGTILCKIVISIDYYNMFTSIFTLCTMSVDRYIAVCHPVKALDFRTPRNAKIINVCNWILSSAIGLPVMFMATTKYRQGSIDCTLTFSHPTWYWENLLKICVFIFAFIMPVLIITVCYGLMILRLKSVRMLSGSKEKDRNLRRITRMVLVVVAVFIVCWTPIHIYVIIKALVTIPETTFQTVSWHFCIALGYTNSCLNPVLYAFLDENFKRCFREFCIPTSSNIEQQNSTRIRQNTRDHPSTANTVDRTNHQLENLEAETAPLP

human NK1 receptor [7] = molecular target: T1, human NK1 receptor
rat NK1 receptor [8] = molecular target: T2, rat NK1 receptor
mu opioid receptor (MOR) [9] = molecular target: mu opioid receptor (MOR) (UniProt P35372); remark: listed apart in the source
[10] = molecular target: T3, delta opioid receptor (DOR)
mu opioid receptor (MOR) [11] = molecular target: mu opioid receptor (MOR) (UniProt P35372); remark: listed apart in the source
[12] = molecular target: T3, delta opioid receptor (DOR)

XAGFMPLW (not fully specified; Dmt1, D-Ala2, NMePhe4 as described; C-terminal benzylamide) [AKG107]
Ki (human NK1 receptor [1]): 1.97 nM | Ki (rat NK1 receptor [2]): 13.6 nM

Y[dA]G[NMeF]SPLW-NHBn [AKG126]
Ki (human NK1 receptor [3]): 0.86 nM | Ki [4]: 63 nM | Ki (rat NK1 receptor [5]): 31.5 nM | Ki (mu opioid receptor (MOR) [6]): 2 nM

XAGFPLW (Dmt1, D-Ala2, NMeGly3, NMePhe4; C-terminal NH-Bn(3',5'-(CF3)2)) [AKG182]
Ki (human NK1 receptor [7]): 5 nM | Ki (rat NK1 receptor [8]): 110 nM

Y[dA]G[NMeF][Dab]PLW-NHBn [AKG172]
Ki (human NK1 receptor [3]): 3.05 nM | Ki [4]: 100 nM | Ki (rat NK1 receptor [5]): 8.24 nM | Ki (mu opioid receptor (MOR) [6]): 8 nM

Y[dA]GFPLW-{NH(3,5-(CF3)2-benzyl)} [TY012]
Ki (human NK1 receptor [7]): 0.6 nM | Ki (mu opioid receptor (MOR) [9]): 9.5 nM | Ki (rat NK1 receptor [8]): 33 nM

[Dmt][dA]G[NMeF]SPLW-NHBn [AKG132]
Ki (human NK1 receptor [3]): 5.61 nM | Ki [4]: 2 nM | Ki (rat NK1 receptor [5]): 31.1 nM | Ki (mu opioid receptor (MOR) [6]): 0.4 nM

XAGFPLW (Dmt1, D-Ala2, NMeGly3; C-terminal NH-Bn(3',5'-(CF3)2)) [AKG180]
Ki (human NK1 receptor [7]): 2.86 nM | Ki (rat NK1 receptor [8]): 17.1 nM

Y[dA]G[NMeF]MPLW-NHBn [AKG106]
Ki (human NK1 receptor [1]): 1.47 nM | Ki (rat NK1 receptor [2]): 9.9 nM

Y[dA]G[NMeF][4‑Apac]PLW-{NH(3,5-(CF3)2-benzyl)} (reading uncertain) [AKG177]
Ki (human NK1 receptor [1]): 5.28 nM | Ki [10]: 70 nM | Ki (mu opioid receptor (MOR) [11]): 1 nM | Ki (rat NK1 receptor [2]): 74.3 nM

Y[dA]G[NMeF][Dap]PLW-NHBn [AKG171]
Ki (human NK1 receptor [3]): 2.98 nM | Ki [4]: 33 nM | Ki (rat NK1 receptor [5]): 8.59 nM | Ki (mu opioid receptor (MOR) [6]): 3 nM

Y[dA]G[NMeF][Ahx]PLW-{NH(3,5-(CF3)2-benzyl)} [AKG124]
Ki (human NK1 receptor [1]): 1.22 nM | Ki [10]: 31 nM | Ki (mu opioid receptor (MOR) [11]): 7 nM | Ki (rat NK1 receptor [2]): 44.3 nM

Y[dA]G[NMeF]KPLW (not fully specified (C-terminus)) [AKG174]
Ki (human NK1 receptor [3]): 3.18 nM | Ki (rat NK1 receptor [5]): 7.31 nM | Ki (mu opioid receptor (MOR) [6]): 8 nM

Y[dA]G[NMeF]GPLW-{NH(3,5-(CF3)2-benzyl)} [AKG113]
Ki (human NK1 receptor [1]): 15 nM | Ki [10]: 46 nM | Ki (mu opioid receptor (MOR) [11]): 3 nM | Ki (rat NK1 receptor [2]): 60.5 nM

Y[dA]G[NMeF][Orn]PLW (not fully specified (C-terminus)) [AKG173]
Ki (human NK1 receptor [3]): 15.5 nM | Ki [4]: 0.05 nM | Ki (rat NK1 receptor [5]): 65.2 nM | Ki (mu opioid receptor (MOR) [6]): 5 nM

Y[dA]G[NMeF][GABA]PLW-{NH(3,5-(CF3)2-benzyl)} [AKG123]
Ki (human NK1 receptor [1]): 1.56 nM | Ki [10]: 3 nM | Ki (mu opioid receptor (MOR) [11]): 9 nM

XAGFPLW (Dmt1, D-Ala2, Phe(4-Cl)4; C-terminal NH-Bn(3',5'-(CF3)2)) [AKG191]
Ki [12]: 5 nM | Ki (mu opioid receptor (MOR) [9]): 2 nM | Ki (rat NK1 receptor [8]): 26.5 nM

XAGFPLW (Dmt1, D-Ala2, Phe(4-I)4; C-terminal NH-Bn(3',5'-(CF3)2)) [AKG193]
Ki (mu opioid receptor (MOR) [9]): 6 nM

XAGFPLW (Dmt1, D-NMeAla2; C-terminal NH-Bn(3',5'-(CF3)2)) [AKG181]
Ki (human NK1 receptor [7]): 4.81 nM | Ki (rat NK1 receptor [8]): 26.4 nM

XAGFPLW (Dmt1, D-Ala2, NMePhe4; C-terminal NH-Bn(3',5'-(CF3)2)) [AKG115]
Ki [12]: 5 nM | Ki (mu opioid receptor (MOR) [9]): 1 nM | Ki (rat NK1 receptor [8]): 48.3 nM

Y[dA]GF[hSer]PLW-NHBn [AKG039]
Ki (human NK1 receptor [3]): 1.32 nM | Ki [4]: 6 nM | Ki (rat NK1 receptor [5]): 148 nM | Ki (mu opioid receptor (MOR) [6]): 116 nM

YAGFXPLW (D-Ala2, NMePhe4, Nle5; C-terminal NH-Bn(3',5'-(CF3)2)) [AKG112]
Ki (human NK1 receptor [1]): 14 nM | Ki [10]: 22 nM | Ki (mu opioid receptor (MOR) [11]): 13 nM

XAGFPLW (Dmt1, D-Ala2, NMePhe(4-F)4; C-terminal NH-Bn(3',5'-(CF3)2)) [AKG128]
Ki (human NK1 receptor [7]): 2.62 nM | Ki (mu opioid receptor (MOR) [9]): 1 nM | Ki (rat NK1 receptor [8]): 33.8 nM

Y[dA]G[Phe(4-F)]PLW-{NH(3,5-(CF3)2-benzyl)} [AKG190]
Ki (human NK1 receptor [7]): 5.61 nM | Ki [12]: 0.2 nM | Ki (mu opioid receptor (MOR) [9]): 4 nM | Ki (rat NK1 receptor [8]): 34.4 nM

Y[dA]G[NMeF][4‑Ampa]PLW-{NH(3,5-(CF3)2-benzyl)} (reading uncertain) [AKG178]
Ki (human NK1 receptor [1]): 3.5 nM | Ki [10]: 100 nM | Ki (rat NK1 receptor [2]): 72.3 nM

XAGFPLW (Dmt1, D-NMeAla2, NMeGly3; C-terminal NH-Bn(3',5'-(CF3)2)) [AKG183]
Ki (human NK1 receptor [7]): 2.49 nM | Ki (rat NK1 receptor [8]): 17.6 nM

Y[dA]G[NMePhe(4-F)]GPLW-{NH(3,5-(CF3)2-benzyl)} [AKG131]
Ki (human NK1 receptor [1]): 2.14 nM | Ki [10]: 17 nM | Ki (mu opioid receptor (MOR) [11]): 185 nM | Ki (rat NK1 receptor [2]): 89.1 nM

Y[dA]GFSPLW (not fully specified (C-terminus)) [AKG038]
Ki (human NK1 receptor [3]): 1.94 nM | Ki [4]: 7 nM | Ki (rat NK1 receptor [5]): 206 nM | Ki (mu opioid receptor (MOR) [6]): 127 nM

XAGFPLW (Dmt1, D-NMeAla2, NMePhe4; C-terminal NH-Bn(3',5'-(CF3)2)) [AKG184]
Ki (human NK1 receptor [7]): 2.84 nM | Ki (rat NK1 receptor [8]): 115 nM

Y[dA]G[NMeF][βAla]PLW-{NH(3,5-(CF3)2-benzyl)} [AKG119]
Ki (human NK1 receptor [1]): 0.93 nM | Ki [10]: 46 nM | Ki (mu opioid receptor (MOR) [11]): 8 nM | Ki (rat NK1 receptor [2]): 29.4 nM

XAGFPLW (Dmt1, D-NMeAla2, NMeGly3, NMePhe4; C-terminal NH-Bn(3',5'-(CF3)2)) [AKG185]
Ki (human NK1 receptor [7]): 3.47 nM | Ki (rat NK1 receptor [8]): 74.8 nM

XAGFPLW (Dmt1, D-Ala2, Phe(4-Br)4; C-terminal NH-Bn(3',5'-(CF3)2)) [AKG192]
Ki (human NK1 receptor [7]): 2.54 nM | Ki (mu opioid receptor (MOR) [9]): 5 nM

Y[dA]G[Phe(4-F)]GPLW-{NH(3,5-(CF3)2-benzyl)} [AKG130]
Ki (human NK1 receptor [1]): 1.54 nM | Ki [10]: 5 nM | Ki (mu opioid receptor (MOR) [11]): 9 nM | Ki (rat NK1 receptor [2]): 72.5 nM

Y[dA]GF[dS]PLW-NHBn [AKG101]
Ki (human NK1 receptor [3]): 2.77 nM | Ki [4]: 34 nM | Ki (rat NK1 receptor [5]): 108 nM | Ki (mu opioid receptor (MOR) [6]): 196 nM

Y[dA]G[NMeF][4Abz]PLW-{NH(3,5-(CF3)2-benzyl)} [AKG176]
Ki (human NK1 receptor [1]): 4.12 nM | Ki [10]: 82 nM | Ki (mu opioid receptor (MOR) [11]): 1 nM | Ki (rat NK1 receptor [2]): 77.8 nM

Y[dA]G[NMeF][4Amb′]PLW-{NH(3,5-(CF3)2-benzyl)} (reading uncertain) [AKG125]
Ki (human NK1 receptor [1]): 2.27 nM | Ki [10]: 117 nM | Ki (mu opioid receptor (MOR) [11]): 5 nM | Ki (rat NK1 receptor [2]): 29.9 nM
